Results on eight molecules are retold here after US8436159B2, “Glyphosate resistant class I 5-endolpyruvylshikimate-3-phosphate synthase (EPSPS)” (Monsanto Technology LLC, priority 2003, dated 2013).

Series [1] has as its system E. coli EPSPS variant, alanine for the glycine at position 96 (G96A). The note with it: read-out: apparent Km for PEP; glyphosate-resistant isolate; cited from earlier work.
The test system of a further series is E. coli EPSPS, native. The note with it: read-out: apparent Km for PEP; native enzyme; cited from earlier work.
Series [2] has as its target T1, maize (Zea mays) class I EPSPS, wild type (WT), pMON70461, DNA SEQ ID NO:3 (Zea mays, UniProt O24566).
T1 construct: pMON70461
T1 sequence (O24566 with tags, fused parts or gaps): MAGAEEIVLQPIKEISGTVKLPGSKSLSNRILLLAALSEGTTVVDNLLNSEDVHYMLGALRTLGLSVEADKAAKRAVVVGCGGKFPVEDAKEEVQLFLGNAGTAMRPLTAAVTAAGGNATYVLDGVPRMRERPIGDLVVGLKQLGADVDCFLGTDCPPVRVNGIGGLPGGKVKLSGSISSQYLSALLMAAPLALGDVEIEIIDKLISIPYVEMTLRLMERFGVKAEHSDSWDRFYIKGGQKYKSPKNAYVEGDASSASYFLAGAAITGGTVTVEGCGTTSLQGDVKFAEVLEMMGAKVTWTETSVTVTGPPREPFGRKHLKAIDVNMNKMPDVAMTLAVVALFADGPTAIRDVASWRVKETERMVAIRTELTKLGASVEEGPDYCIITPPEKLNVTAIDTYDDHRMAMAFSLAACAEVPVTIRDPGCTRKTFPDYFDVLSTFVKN
Briefly: EPSPS steady-state kinetics, wild-type maize EPSPS. Type of series: biochemical. The procedure:
The wild type and variant EPSPS coding sequences were cloned into a pET-19b base vector (Novagen, Madison, Wis.). The plant (maize) class I EPSPS variants so created were assigned pMON plasmid numbers (Table 2). The variant EPSPS proteins were purified from the E. coli host using the protocols outlined in the pET system manual, 9th edition (Novagen) or by the following method. A single colony or a few microliters from a glycerol stock was inoculated into 4 mL LB medium containing 0.1 mg/mL carbenicillin antibiotic. The culture was incubated with shaking at 37 C for 4 hours. The cultures were stored at 4° C. overnight. The following morning, 1 mL of the overnight culture was used to inoculate 100 mL of fresh LB medium containing 0.1 mg/mL carbenicillin. The cultures were incubated with shaking at 37 C for 4-5 hours, then the cultures were placed at 4° C. for 5-10 minutes. The cultures were then induced with IPTG (1 mM final concentration) and incubated with shaking at 30 C for 4 hours or 20° C. overnight. The cells were harvested by centrifugation at 7000 rpm for 20 minutes at 4° C. The supernatant was removed and the cells were frozen at −70° C. until further use. The proteins were extracted by resuspending the cell pellet in BugBuster reagent (Novagen) using 5 mL reagent per gram of cells. Benzonase (125 Units) was added to the resuspension and the cell suspension was then incubated on a rotating mixer for 20 minutes at room temperature. The cell debris was removed by centrifugation at 10,000 rpm for 20 minutes at room temperature. The supernatant was passed through a 0.45 μm syringe-end filter and transferred to a fresh tube. A pre-packed columns containing 1.25 mL of His-Bind resin was equilibrated with 10 mL of 5 mM imidazole, 0.5 M NaCl, 20 mM Tris-HCl pH 7.9 (1× Binding Buffer). The column was then loaded with the prepared cell extract. After the cell extract had drained, the column was then washed with 10 mL of 1× Binding Buffer, followed with 10 mL of 60 mM imidazole, 0.5 M NaCl, 20 mM Tris-HCl pH 7.9 (1× Wash Buffer). […]

Substrate in series [3]: C=C(OP(=O)(O)O)C(=O)O
Briefly: EPSPS steady-state kinetics, TIPA variant. Type of series: biochemical, maize (Zea mays). The conditions noted are these: other: pH 7.0, 1 mM shikimate-3-phosphate, Table 2.

Substrate in series [4]: C=C(OP(=O)(O)O)C(=O)O
Briefly: EPSPS steady-state kinetics, TIPS variant. The format is biochemical, maize (Zea mays). The note with it: other: pH 7.0, 1 mM shikimate-3-phosphate.

Substrate in series [5]: C=C(OP(=O)(O)O)C(=O)O
In words: EPSPS steady-state kinetics, TIPT variant. Type of series: biochemical, maize (Zea mays). The note with it: other: pH 7.0, 1 mM shikimate-3-phosphate.

Substrate in series [6]: C=C(OP(=O)(O)O)C(=O)O
In words: EPSPS steady-state kinetics, TIPI variant. Type of series: biochemical, maize (Zea mays). The conditions noted are these: other: pH 7.0, 1 mM shikimate-3-phosphate.

Substrate in series [7]: C=C(OP(=O)(O)O)C(=O)O
Briefly: EPSPS steady-state kinetics, TIPM variant. The conditions noted are these: other: pH 7.0, 1 mM shikimate-3-phosphate. The format is biochemical, maize (Zea mays).

Substrate in series [8]: C=C(OP(=O)(O)O)C(=O)O
In words: EPSPS steady-state kinetics, TIPV variant. The format is biochemical, maize (Zea mays). The note with it: other: pH 7.0, 1 mM shikimate-3-phosphate.

Substrate in series [9]: C=C(OP(=O)(O)O)C(=O)O
Briefly: EPSPS steady-state kinetics, TIPG variant. Type of series: biochemical, maize (Zea mays). The note with it: other: pH 7.0, 1 mM shikimate-3-phosphate.

By Km is commonly meant the substrate concentration at which the rate is half of its maximum. Usually kcat stands for the maximal rate divided by the concentration of active sites. As to `C=C(OP(=O)(O)O)C(=O)O` [PEP, phosphoenolpyruvate], the Michaelis-Menten constant (Km) in series [1] was 220 µM; in the series with E. coli EPSPS, native, 10 µM; in series [2] (pH 7.0, 1 mM shikimate-3-phosphate, Table 2, read-out: Km-PEP), 27 ± 4 µM. For the same molecule, the turnover number (kcat) in series [2] (Table 5) is 8.8 ± 0.5 s⁻¹.

B1: maize (Zea mays) class I EPSPS variant TIPA (T102I, P106A), pMON42481, ZmTIPA SEQ ID NO:39 (Zea mays; P106A/T102I) (protein)
chain: AGAEEIVLQPIKEISGTVKLPGSKSLSNRILLLAALSEGTTVVDNLLNSEDVHYMLGALRTLGLSVEADKAAKRAVVVGCGGKFPVEDAKEEVQLFLGNAGIAMRALTAAVTAAGGNATYVLDGVPRMRERPIGDLVVGLKQLGADVDCFLGTDCPPVRVNGIGGLPGGKVKLSGSISSQYLSALLMAAPLALGDVEIEIIDKLISIPYVEMTLRLMERFGVKAEHSDSWDRFYIKGGQKYKSPKNAYVEGDASSASYFLAGAAITGGTVTVEGCGTTSLQGDVKFAEVLEMMGAKVTWTETSVTVTGPPREPFGRKHLKAIDVNMNKMPDVAMTLAVVALFADGPTAIRDVASWRVKETERMVAIRTELTKLGASVEEGPDYCIITPPEKLNVTAIDTYDDHRMAMAFSLAACAEVPVTIRDPGCTRKTFPDYFDVLSTFVKN
notes: pMON42481
For B1, in series [3], the Km came out at 10.2 ± 1.1 µM, the turnover number (kcat) was 2.1 ± 0.1 s⁻¹ and the kcat/Km is 0.2 µM^−1s^−1.

B2: maize (Zea mays) class I EPSPS variant TIPS (T102I, P106S), pMON70462 (Zea mays; P106S/T102I) (protein)
chain: AGAEEIVLQPIKEISGTVKLPGSKSLSNRILLLAALSEGTTVVDNLLNSEDVHYMLGALRTLGLSVEADKAAKRAVVVGCGGKFPVEDAKEEVQLFLGNAGIAMRSLTAAVTAAGGNATYVLDGVPRMRERPIGDLVVGLKQLGADVDCFLGTDCPPVRVNGIGGLPGGKVKLSGSISSQYLSALLMAAPLALGDVEIEIIDKLISIPYVEMTLRLMERFGVKAEHSDSWDRFYIKGGQKYKSPKNAYVEGDASSASYFLAGAAITGGTVTVEGCGTTSLQGDVKFAEVLEMMGAKVTWTETSVTVTGPPREPFGRKHLKAIDVNMNKMPDVAMTLAVVALFADGPTAIRDVASWRVKETERMVAIRTELTKLGASVEEGPDYCIITPPEKLNVTAIDTYDDHRMAMAFSLAACAEVPVTIRDPGCTRKTFPDYFDVLSTFVKN
notes: pMON70462
As to B2, in series [4], the Michaelis constant (Km) is 10.6 ± 1.6 µM.

B3: maize (Zea mays) class I EPSPS variant TIPT (T102I, P106T), pMON58452, ZmTIPT SEQ ID NO:38 (Zea mays; P106T/T102I) (protein)
chain: AGAEEIVLQPIKEISGTVKLPGSKSLSNRILLLAALSEGTTVVDNLLNSEDVHYMLGALRTLGLSVEADKAAKRAVVVGCGGKFPVEDAKEEVQLFLGNAGIAMRTLTAAVTAAGGNATYVLDGVPRMRERPIGDLVVGLKQLGADVDCFLGTDCPPVRVNGIGGLPGGKVKLSGSISSQYLSALLMAAPLALGDVEIEIIDKLISIPYVEMTLRLMERFGVKAEHSDSWDRFYIKGGQKYKSPKNAYVEGDASSASYFLAGAAITGGTVTVEGCGTTSLQGDVKFAEVLEMMGAKVTWTETSVTVTGPPREPFGRKHLKAIDVNMNKMPDVAMTLAVVALFADGPTAIRDVASWRVKETERMVAIRTELTKLGASVEEGPDYCIITPPEKLNVTAIDTYDDHRMAMAFSLAACAEVPVTIRDPGCTRKTFPDYFDVLSTFVKN
notes: pMON58452
With B3, the Michaelis-Menten constant (Km) in series [5] came out at 11.2 ± 1.8 µM.

B4: maize (Zea mays) class I EPSPS variant TIPI (T102I, P106I), pMON42486 (Zea mays; P106I/T102I) (protein)
chain: AGAEEIVLQPIKEISGTVKLPGSKSLSNRILLLAALSEGTTVVDNLLNSEDVHYMLGALRTLGLSVEADKAAKRAVVVGCGGKFPVEDAKEEVQLFLGNAGIAMRILTAAVTAAGGNATYVLDGVPRMRERPIGDLVVGLKQLGADVDCFLGTDCPPVRVNGIGGLPGGKVKLSGSISSQYLSALLMAAPLALGDVEIEIIDKLISIPYVEMTLRLMERFGVKAEHSDSWDRFYIKGGQKYKSPKNAYVEGDASSASYFLAGAAITGGTVTVEGCGTTSLQGDVKFAEVLEMMGAKVTWTETSVTVTGPPREPFGRKHLKAIDVNMNKMPDVAMTLAVVALFADGPTAIRDVASWRVKETERMVAIRTELTKLGASVEEGPDYCIITPPEKLNVTAIDTYDDHRMAMAFSLAACAEVPVTIRDPGCTRKTFPDYFDVLSTFVKN
notes: pMON42486
On to B4, for which the Km in series [6] was found to be 60.3 ± 2.8 µM.

B5: maize (Zea mays) class I EPSPS variant TIPM (T102I, P106M), pMON42484 (Zea mays; P106M/T102I) (protein)
chain: AGAEEIVLQPIKEISGTVKLPGSKSLSNRILLLAALSEGTTVVDNLLNSEDVHYMLGALRTLGLSVEADKAAKRAVVVGCGGKFPVEDAKEEVQLFLGNAGIAMRMLTAAVTAAGGNATYVLDGVPRMRERPIGDLVVGLKQLGADVDCFLGTDCPPVRVNGIGGLPGGKVKLSGSISSQYLSALLMAAPLALGDVEIEIIDKLISIPYVEMTLRLMERFGVKAEHSDSWDRFYIKGGQKYKSPKNAYVEGDASSASYFLAGAAITGGTVTVEGCGTTSLQGDVKFAEVLEMMGAKVTWTETSVTVTGPPREPFGRKHLKAIDVNMNKMPDVAMTLAVVALFADGPTAIRDVASWRVKETERMVAIRTELTKLGASVEEGPDYCIITPPEKLNVTAIDTYDDHRMAMAFSLAACAEVPVTIRDPGCTRKTFPDYFDVLSTFVKN
notes: pMON42484
Take B5: in series [7], the Michaelis-Menten constant (Km) came out at 143.3 ± 12.6 µM.

B6: maize (Zea mays) class I EPSPS variant TIPV (T102I, P106V), pMON42482 (Zea mays; P106V/T102I) (protein)
chain: AGAEEIVLQPIKEISGTVKLPGSKSLSNRILLLAALSEGTTVVDNLLNSEDVHYMLGALRTLGLSVEADKAAKRAVVVGCGGKFPVEDAKEEVQLFLGNAGIAMRVLTAAVTAAGGNATYVLDGVPRMRERPIGDLVVGLKQLGADVDCFLGTDCPPVRVNGIGGLPGGKVKLSGSISSQYLSALLMAAPLALGDVEIEIIDKLISIPYVEMTLRLMERFGVKAEHSDSWDRFYIKGGQKYKSPKNAYVEGDASSASYFLAGAAITGGTVTVEGCGTTSLQGDVKFAEVLEMMGAKVTWTETSVTVTGPPREPFGRKHLKAIDVNMNKMPDVAMTLAVVALFADGPTAIRDVASWRVKETERMVAIRTELTKLGASVEEGPDYCIITPPEKLNVTAIDTYDDHRMAMAFSLAACAEVPVTIRDPGCTRKTFPDYFDVLSTFVKN
notes: pMON42482
For B6, the Km in [8] is 109.3 ± 12.9 µM.

B7: maize (Zea mays) class I EPSPS variant TIPG (T102I, P106G), pMON42480 (Zea mays; P106G/T102I) (protein)
chain: AGAEEIVLQPIKEISGTVKLPGSKSLSNRILLLAALSEGTTVVDNLLNSEDVHYMLGALRTLGLSVEADKAAKRAVVVGCGGKFPVEDAKEEVQLFLGNAGIAMRGLTAAVTAAGGNATYVLDGVPRMRERPIGDLVVGLKQLGADVDCFLGTDCPPVRVNGIGGLPGGKVKLSGSISSQYLSALLMAAPLALGDVEIEIIDKLISIPYVEMTLRLMERFGVKAEHSDSWDRFYIKGGQKYKSPKNAYVEGDASSASYFLAGAAITGGTVTVEGCGTTSLQGDVKFAEVLEMMGAKVTWTETSVTVTGPPREPFGRKHLKAIDVNMNKMPDVAMTLAVVALFADGPTAIRDVASWRVKETERMVAIRTELTKLGASVEEGPDYCIITPPEKLNVTAIDTYDDHRMAMAFSLAACAEVPVTIRDPGCTRKTFPDYFDVLSTFVKN
notes: pMON42480
With B7, the Michaelis-Menten constant (Km) in [9] was 23.0 ± 3.7 µM.
